Consider six molecules from article PMC6751199, “A synthetic metabolic network for physicochemical homeostasis” (Nature Communications, 2019).

Series [1] concerns the target T1, ArcD2 (arginine/ornithine antiporter) (Lactococcus lactis, UniProt Q9CE19).
T1 construct: full length, cleavable C-terminal 10His tag (cleavage not described), expressed in L. lactis JP9000 (arcD1D2 deleted), purified in DDM, reconstituted in DOPE/DOPC/DOPG vesicles
T1 sequence (Q9CE19 1-497): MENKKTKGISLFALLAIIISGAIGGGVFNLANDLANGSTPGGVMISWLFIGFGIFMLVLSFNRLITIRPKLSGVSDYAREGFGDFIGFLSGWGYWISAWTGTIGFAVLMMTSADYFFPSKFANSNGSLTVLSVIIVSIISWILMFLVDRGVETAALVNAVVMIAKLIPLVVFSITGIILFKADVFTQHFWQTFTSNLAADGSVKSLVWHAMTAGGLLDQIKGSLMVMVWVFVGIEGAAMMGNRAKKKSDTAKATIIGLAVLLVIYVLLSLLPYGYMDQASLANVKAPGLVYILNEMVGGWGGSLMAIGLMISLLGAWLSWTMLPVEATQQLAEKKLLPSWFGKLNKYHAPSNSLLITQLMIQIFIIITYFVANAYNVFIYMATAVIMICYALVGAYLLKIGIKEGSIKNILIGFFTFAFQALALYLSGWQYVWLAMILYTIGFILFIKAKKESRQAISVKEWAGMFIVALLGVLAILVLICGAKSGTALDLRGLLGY
As to the kind of experiment: […]-arginine uptake in ArcD2 proteoliposomes. Particulars: 50 mM KPi pH 7.0, 30 °C; 10 µM arginine outside, counter-substrate L-ornithine inside; labelled compound. The format is biochemical.

For series [2], the target named is T2, OpuA (ATP-driven glycine betaine transporter) (Lactococcus lactis, UniProt Q9RQ05).
T2 construct: gene busAB; ABC transporter complex purified by Ni-Sepharose in DDM (tag not described here), expressed in L. lactis, co-reconstituted with ArcD2 in lipid vesicles
T2 sequence (Q9RQ05 1-573): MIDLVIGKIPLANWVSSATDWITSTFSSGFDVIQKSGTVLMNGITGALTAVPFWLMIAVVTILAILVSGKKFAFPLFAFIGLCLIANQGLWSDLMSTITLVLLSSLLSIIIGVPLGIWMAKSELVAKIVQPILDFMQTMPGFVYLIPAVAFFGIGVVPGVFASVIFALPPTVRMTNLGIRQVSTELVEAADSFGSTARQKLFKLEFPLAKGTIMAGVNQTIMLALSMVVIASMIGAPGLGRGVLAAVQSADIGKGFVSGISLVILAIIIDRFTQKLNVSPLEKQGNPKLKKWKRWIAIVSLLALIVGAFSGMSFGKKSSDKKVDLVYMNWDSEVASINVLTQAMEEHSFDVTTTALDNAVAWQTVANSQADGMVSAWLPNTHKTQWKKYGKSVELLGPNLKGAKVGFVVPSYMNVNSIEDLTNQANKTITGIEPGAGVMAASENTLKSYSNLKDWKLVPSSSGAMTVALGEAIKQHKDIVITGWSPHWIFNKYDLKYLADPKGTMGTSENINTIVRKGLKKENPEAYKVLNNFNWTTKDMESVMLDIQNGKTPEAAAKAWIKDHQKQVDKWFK
T2 sequence (Q9RQ06 1-407 partner): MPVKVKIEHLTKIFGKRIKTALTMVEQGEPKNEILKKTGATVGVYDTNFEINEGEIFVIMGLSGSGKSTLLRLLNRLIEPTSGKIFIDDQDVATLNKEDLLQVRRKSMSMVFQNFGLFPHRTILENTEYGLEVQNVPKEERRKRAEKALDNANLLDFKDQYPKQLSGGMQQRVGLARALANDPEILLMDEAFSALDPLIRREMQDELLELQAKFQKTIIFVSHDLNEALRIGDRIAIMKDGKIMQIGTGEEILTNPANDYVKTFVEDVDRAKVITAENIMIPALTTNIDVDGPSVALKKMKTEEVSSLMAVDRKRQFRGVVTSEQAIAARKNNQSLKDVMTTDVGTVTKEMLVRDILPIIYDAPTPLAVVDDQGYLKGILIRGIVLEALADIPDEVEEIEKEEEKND
As to the kind of experiment: […]-glycine betaine uptake in OpuA/ArcD2 vesicles. The format is biochemical. Conditions: 100 mM KPi pH 7.0, 250 mM KCl, 30 °C; ATP regenerated inside from arginine; 18 µM glycine betaine; labelled compound.

Series [3] concerns the target T1, ArcD2 (arginine/ornithine antiporter). As to the kind of experiment: […]-arginine uptake in ArcD2 proteoliposomes loaded with citrulline. The format is biochemical. Conditions: 50 mM KPi pH 7.0, 30 °C; counter-substrate 10 µM 14C-arginine outside; 1 or 10 mM citrulline inside; electrogenic.
Substrate in series [4]: Nc1ncnc2c1ncn2[C@@H]1O[C@H](COP(=O)(O)OP(=O)(O)O)[C@@H](O)[C@H]1O
As to the kind of experiment: ATP/ADP ratio by PercevalHR fluorescence, pH-corrected with pyranine. The format is biochemical, Lactococcus lactis. Particulars: 50 mM KPi pH 7.0, 5 mM MgSO4, 30 °C, excess carbamoyl-phosphate.

Substrate in series [5]: NC(=O)OP(=O)(O)O
The series is described as above. The format is biochemical, Lactococcus lactis. Particulars: 50 mM KPi pH 7.0, 5 mM MgSO4, 30 °C, excess ADP.

Substrate in series [6]: NC(=O)OP(=O)(O)O
As to the kind of experiment: purified protein. The format is biochemical, Lactococcus lactis. Conditions: 50 mM KPi pH 7.0, 30 °C, excess L-ornithine, back reaction (citrulline formation).

Substrate in series [7]: NCCC[C@H](N)C(=O)O
As to the kind of experiment: purified protein. Conditions: 50 mM KPi pH 7.0, 30 °C, excess carbamoyl-phosphate, back reaction (citrulline formation).

Substrate in series [8]: N=C(N)NCCC[C@H](N)C(=O)O
As to the kind of experiment: purified protein. The format is biochemical, Lactococcus lactis. Conditions: 50 mM KPi pH 7.0, 30 °C, 0-480 µM L-arginine.

`N=C(N)NCCC[C@H](N)C(=O)O` [L-arginine]: the “14C-arginine uptake in ArcD2 proteoliposomes” value in series [1] is on record as “demonstrated exchange of arginine for ornithine”.
Regarding `C[N+](C)(C)CC(=O)[O-]` [glycine betaine], the “14C-glycine betaine uptake in OpuA/ArcD2 vesicles” value in series [2] is “OpuA is constitutively active and imports glycine betaine at the expense of ATP”.
Take `NC(=O)NCCC[C@H](N)C(=O)O` [L-citrulline]: the “14C-arginine uptake in ArcD2 proteoliposomes loaded with citrulline” value in series [3] is on record as “ArcD2 exchanges arginine for citrulline, albeit at a much lower rate”.

B1: ArcC1 (carbamate kinase) (Lactococcus lactis subsp. lactis Il1403) (protein)
chain: MVKRIVVALGGNAILSKDPSAKAQKEALEVTAEQLMPLIKDNDRQMVVTHGNGPQVGNLLLQQLGSDSEKNPAMPLDTVGAMTQGEIGFWTVQAFTRAMANNGLEHYPVISAVTQTLVDENDPAFKNASKPIGPFYTEEQLPEIKKQFPDWELMEDAGRGYRRVVPSPKPLEIIEAKAFGPILESGSLLIASGGGGIPVIKDGKGYQGVEAVIDKDFSAAKLAEMVGADELLILTSGGDVYLNYGKENQVHLETVKVSEMRKYVDEERFAKGSMGPKVEAAVSFVERTGKTATITSLDNVENFVKSGSGTRIVP
notes: full length, cleavable N-terminal 10His tag (cleavage not described), expressed from pNZarcC1 in L. lactis NZ9000, Ni-Sepharose and Superdex 200
Take B1: in series [4], the Km amounted to 1000 µM and the kcat was 310 s⁻¹. For the same molecule, in series [5], the Km amounted to 700 µM and the kcat came out at 420 s⁻¹.

B2: ArcB (ornithine transcarbamoylase) (Lactococcus lactis subsp. lactis Il1403) (protein)
chain: MTSPLITKAEVNSVFQGRSLLAEKDFTPAEINYLVDFGLHLKALKQQNIPHHYLEGKNIALLFAKTSTRTRAAFTTAAIDLGAHPEYLGANDIQLGIKESTEDTARVLGSMFDAIERRGFSQKEVEDLAKYSGVPVWNGLTDDWHPTQMIADFMTVKENFGHLKGLTLVYVGDGRNNMANSLIVTGSMLGVNVHIVAPDSLHPTKEVMDIANKFAEKSGAKPLATSNIEEGVKGANIIYSDVWVSMGESNWEERVKLLTPYRITMDMLKMTGNADNGQLIFMHCLPAFHDTETEYGKEIKEKYGLTEMEVTDEVFRSKYARQFEEAENRMHSIKAIMAATLGNLFIPAVPEDFK
notes: full length, cleavable N-terminal 6His tag (cleavage not described), expressed from pNZarcB in L. lactis NZ9000, Ni-Sepharose and Superdex 200
For B2, in “purified protein [6]”, the Km was found to be 1900 µM and the kcat was 2900 s⁻¹. For the same molecule, in the series “purified protein [7]”, the Km came to 700 µM and the kcat was determined as 2300 s⁻¹.

B3: ArcA (arginine deiminase) (Lactococcus lactis subsp. lactis Il1403) (protein)
chain: MNNGINVNSEIGKLKSVLLHRPGAEVENITPDTMKQLLFDDIPYLKIAQKEHDFFAQTLRDNGAETVYIENLATEVFEKSSETKEEFLSHLLHEAGYRPGRTYDGLTEYLTSMSTKDMVEKIYAGVRKNELDIKRTALSDMAGSDAENYFYLNPLPNAYFTRDPQASMGVGMTINKMTFPARQPESLITEYVMANHPRFKDTPIWRDRNHTTRIEGGDELILNKTTVAIGVSERTSSKTIQNLAKELFANPLSTFDTVLAVEIPHNHAMMHLDTVFTMINHDQFTVFPGIMDGAGNINVFILRPGKDDEVEIEHLTDLKAALKKVLNLSELDLIECGAGDPIAAPREQWNDGSNTLAIAPGEIVTYDRNYVTVELLKEHGIKVHEILSSELGRGRGGARCMSQPLWREDL
notes: full length, cleavable N-terminal 6His tag (cleavage not described), expressed from pNZarcA in L. lactis NZ9000, Ni-Sepharose and Superdex 200
Consider B3, for which, in the series “purified protein [8]”, the Km worked out at 26.5 µM and the kcat is 12 s⁻¹.
